pIC50: −log10 of the molar value. Values belong to the substance of their own block, whether it stands above or below them.
Key:
HLA-A*0201 (Human) [1] = test: competition vs 125I standard peptide, purified HLA
HLA-A*2401 (human) [2] = test: competition with 125I probe peptide, purified HLA class I
HLA-A*2401 (Human) [3] = target: HLA-A*2401 (Human)
HLA-A*0201 (Human) [4] = test: competition vs 125I probe, purified HLA
HLA-A*0203 (Human) = test: competition vs 125I probe, purified HLA
HLA-A*0206 (Human) = test: competition vs 125I probe, purified HLA
HLA-A*0202 (Human) = test: competition vs 125I probe, purified HLA

Substance: EALELKDA (peptide)
- binding affinity ratio (ratio to standard peptide) (HLA-A*0201 (Human) [1]): -0.0002

Substance: ELNEALEL (peptide)
- binding affinity ratio (ratio to standard peptide) (HLA-A*0201 (Human) [1]): -0.0002

Substance: PLDGEYFT (peptide)
- binding affinity ratio (ratio to standard peptide) (HLA-A*0201 (Human) [1]): -0.0002

Substance: TFSDLWKL (p53 position 18) (peptide)
- binding affinity ratio (standard IC50 / test IC50) (HLA-A*2401 (human) [2]): 0.0016

Substance: p53 peptide SYGFRLGF (position 106, 8 amino acids)
- binding affinity ratio (IC50 of standard peptide/IC50 of test peptide) (HLA-A*2401 (Human) [3]): 0.028

Substance: p53 peptide TFSDLWKL (position 18, 8 amino acids)
- binding affinity ratio (IC50 of standard peptide/IC50 of test peptide) (HLA-A*2401 (Human) [3]): 0.0016

Substance: p53 peptide TYQGSYGF (position 102, 8 amino acids)
- binding affinity ratio (IC50 of standard peptide/IC50 of test peptide) (HLA-A*2401 (Human) [3]): 0.11

Substance: p53 peptide … (position 106, 9 amino acids)
- binding affinity ratio (IC50 of standard peptide/IC50 of test peptide) (HLA-A*2401 (Human) [3]): 0.02

Substance: p53 peptide … (position 117, 10 amino acids)
- binding affinity ratio (IC50 of standard peptide/IC50 of test peptide) (HLA-A*2401 (Human) [3]): 0.0001

Substance: p53 peptide … (position 125, 10 amino acids)
- binding affinity ratio (IC50 of standard peptide/IC50 of test peptide) (HLA-A*2401 (Human) [3]): 5.1

Substance: p53.69 AAPPVAPA (peptide)
- pIC50 (HLA-A*0201 (Human) [4]): 5.30

The next lines start with the values.

- binding affinity ratio (standard IC50 / test IC50) (HLA-A*2401 (human) [2]): -0.0004
Substance: RFEMFREL (p53 position 337) (peptide)

- binding affinity ratio (IC50 of standard peptide/IC50 of test peptide) (HLA-A*0301 (Human)): 0.0046
Substance: p53 peptide HMTEVVRR (position 168)

- binding affinity ratio (IC50 of standard peptide/IC50 of test peptide) (HLA-A*2401 (Human) [3]): -0.0004
Substance: p53 peptide RFEMFREL (position 337, 8 amino acids)

- binding affinity ratio (IC50 of standard peptide/IC50 of test peptide) (HLA-A*2401 (Human) [3]): 0.12
Substance: p53 peptide … (position 102, 10 amino acids)

- pIC50 (HLA-A*0203 (Human)): 7.64
- pIC50 (HLA-A*0206 (Human)): 7.31
Substance: p53.129B7V9 ALNKMFBQV (peptide)

- pIC50 (HLA-A*0202 (Human)): 7.15
- pIC50 (HLA-A*0203 (Human)): 7.82
- pIC50 (HLA-A*0206 (Human)): 7.17
Substance: p53.135B1B7 BQLAKTBPV (peptide)

- pIC50 (HLA-A*0201 (Human) [4]): 7.34
- pIC50 (HLA-A*0203 (Human)): 8.11
- pIC50 (HLA-A*0206 (Human)): 7.19
Substance: p53.135B1L2B7 BLLAKTBPV (peptide)
